Fewer inactive variants are shown than the library holds.

One data set relates to biotinyl-Phe-oxazolone. The data set can be described thus: self-aminoacylation, catalytic enhancement (BFO) (fold over background); higher = more active; k-Seq, kA / k0A0; sequences stand for … in GGGAAUGGAUCCACAUCUACGAAUUC…UUCACUGCAGACUUGACGAAGCUG
A digest of the protocol: (§1)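 Mutagenized RNA pools with a 21-nt variable region (0.43 μM) were reacted with each biotinyl-aminoacyl-oxazolone at 2–1250 μM for 90 minutes at room temperature, in 50 μL HEPES/NaCl/KCl/MgCl2/CaCl2 buffer containing 5% acetonitrile at pH 6.9–7.0. RNA captured on streptavidin was quantified by triplicate qPCR and by Illumina sequencing. The fraction reacted for each sequence was fit to a pseudo-first-order model with bootstrapping, and catalytic enhancement is the median kA divided by the uncatalyzed rate, taken as the low-activity peak of a bimodal Gaussian fit.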

The subject of the next data set is biotinyl-Trp-oxazolone. The data set can be described thus: self-aminoacylation, catalytic enhancement (BWO) (fold over background); higher = more active; k-Seq, kA / k0A0; sequences stand for … in GGGAAUGGAUCCACAUCUACGAAUUC…UUCACUGCAGACUUGACGAAGCUG
A digest of the protocol:
as §1

As to “CUACUUCAAGAAAUCGGUCUG [Fam1A.1 aminoacylation ribozyme variant]”, the self-aminoacylation in the data set with biotinyl-Phe-oxazolone stood at 4.36; with biotinyl-Trp-oxazolone it was 3.05.
On the same counts, the results for “CUGCUUCAAACAAUCGAUCUG [Fam1A.1 aminoacylation ribozyme variant]” are 7.44 and 2.77.
On the same counts, the results for “CAACUUCAAACAAUCGGUCUA [Fam1A.1 aminoacylation ribozyme variant]” are 26.4 and 13.9.
The like results for “AAGUUUGCUAACAGUCGUAAG [Fam3.1 aminoacylation ribozyme variant]” were, in that order, 27.2 and 7.81.
Turning to “CCACACGUCAAGCAAUCGGCC [Fam1B.1 aminoacylation ribozyme variant]”, the self-aminoacylation came out at 3.91 in the data set on biotinyl-Phe-oxazolone and 2 in the data set on biotinyl-Trp-oxazolone.
On the same counts, the results for “UCACUCUUCAAGCAAUCGGUC [Fam1B.1 aminoacylation ribozyme variant]” are 27 and 12.7.
The like results for “AAGUGUGCUAAUAGUCACAAG [Fam3.1 aminoacylation ribozyme variant]” were, in that order, 6.87 and 3.91.
The like results for “UAGUUUGCUAAUAGUCGCAAG [Fam3.1 aminoacylation ribozyme variant]” were, in that order, 9.38 and 3.18.
As to “CUACUUCAACCAAUCGGUGUG [Fam1A.1 aminoacylation ribozyme variant]”, the self-aminoacylation in the data set with biotinyl-Phe-oxazolone is 4.96; in the data set with biotinyl-Trp-oxazolone, 4.66.
“CUACUUCAAGCAAUCGGUCUG [Fam1A.1 aminoacylation ribozyme variant]”: the self-aminoacylation in the data set on biotinyl-Phe-oxazolone worked out at 13.6; in the data set on biotinyl-Trp-oxazolone it was 7.74.
As for “AUUACCCUGGCCAUCGAGUAA [Fam2.1 aminoacylation ribozyme variant]”, the figures for the self-aminoacylation in the data set on biotinyl-Phe-oxazolone and with biotinyl-Trp-oxazolone were 3.72 and 2.74, respectively.
On to “AAUUUUGCUAAUAGUCGCAAG [Fam3.1 aminoacylation ribozyme variant]”, for which the self-aminoacylation in the data set with biotinyl-Phe-oxazolone turned out to be 5; in the data set with biotinyl-Trp-oxazolone it was 2.43.
On the same counts, the results for “CCACAUUUCAACCAAUCGGUC [Fam1B.1 aminoacylation ribozyme variant]” are 7.78 and 5.58.
As for “CUACUUCAGACAAUCGGCCUG [Fam1A.1 aminoacylation ribozyme variant]”, the values for the self-aminoacylation in the data set on biotinyl-Phe-oxazolone and with biotinyl-Trp-oxazolone were 3.82 and 2.23, respectively.
The like results for “UCACCCUUCAAGCAAUCGGUC [Fam1B.1 aminoacylation ribozyme variant]” were, in that order, 10.5 and 6.03.
The like results for “CCACUCUUCAAUCAAUCGGUC [Fam1B.1 aminoacylation ribozyme variant]” were, in that order, 33.5 and 20.3.
With “CUGCCUCAAACAAUCGGUCUG [Fam1A.1 aminoacylation ribozyme variant]”, the self-aminoacylation with biotinyl-Phe-oxazolone stood at 34.5; with biotinyl-Trp-oxazolone it was 20.9.
The like results for “CUUCUUCAAAUAAUCGGUCUG [Fam1A.1 aminoacylation ribozyme variant]” were, in that order, 10.7 and 7.57.
On the same counts, the results for “CUACUUCAAAGAAUCGGUCUC [Fam1A.1 aminoacylation ribozyme variant]” are 4.32 and 3.26.
On the same counts, the results for “AAGUAUGCUAAUAGUCACAAG [Fam3.1 aminoacylation ribozyme variant]” are 9.66 and 3.36.
With “GUACUUCAAACAAUCGGACUG [Fam1A.1 aminoacylation ribozyme variant]”, the self-aminoacylation is 5.92 with biotinyl-Phe-oxazolone and 5.26 in the data set with biotinyl-Trp-oxazolone.
On the same counts, the results for “CCAAACUUCAAGCAAUCAGUC [Fam1B.1 aminoacylation ribozyme variant]” are 9.55 and 3.03.
Take “CUUCACCUAGGUCAUCGGGUC [Fam2.2 aminoacylation ribozyme variant]”: the self-aminoacylation in the data set on biotinyl-Phe-oxazolone stood at 3.47; in the data set on biotinyl-Trp-oxazolone it was 2.29.
On the same counts, the results for “CUCCUUCAAACAAUCGGUCCG [Fam1A.1 aminoacylation ribozyme variant]” are 6.9 and 6.67.
Consider “CUCCUUCAAACAAUCGGACUG [Fam1A.1 aminoacylation ribozyme variant]”, for which the self-aminoacylation with biotinyl-Phe-oxazolone turned out to be 12.9; with biotinyl-Trp-oxazolone, 8.83.
“AAAUUUGCUAAUAGUCGUAAG [Fam3.1 aminoacylation ribozyme variant]”: the self-aminoacylation is 10.3 in the data set on biotinyl-Phe-oxazolone and 4.02 in the data set on biotinyl-Trp-oxazolone.
In the case of “GUACUUCAAAUAAUCGGUCUG [Fam1A.1 aminoacylation ribozyme variant]”, the self-aminoacylation with biotinyl-Phe-oxazolone was found to be 10.4; with biotinyl-Trp-oxazolone, 10.7.
On the same counts, the results for “UUAGUUCAAACAAUCGGUCUG [Fam1A.1 aminoacylation ribozyme variant]” are 4.01 and 2.94.
On the same counts, the results for “ACACACUUCAAGGAAUCGGUC [Fam1B.1 aminoacylation ribozyme variant]” are 3.08 and 2.96.
On to “CUACCCUUCAAGCAAUCGGUC [Fam1B.1 aminoacylation ribozyme variant]”, for which the self-aminoacylation in the data set on biotinyl-Phe-oxazolone turned out to be 8.35; in the data set on biotinyl-Trp-oxazolone it was 5.52.
The like results for “AUUAGCCUGGUCGUCGAGUGA [Fam2.1 aminoacylation ribozyme variant]” were, in that order, 7.67 and 2.09.
The like results for “AUACUUCAAACAAUCGGUCUU [Fam1A.1 aminoacylation ribozyme variant]” were, in that order, 6.84 and 4.01.
The like results for “CCACACUUCAAGAAAUCGGUC [Fam1B.1 aminoacylation ribozyme variant]” were, in that order, 10.8 and 6.66.
With “AGGUUUGCUAAUAGUCACAAG [Fam3.1 aminoacylation ribozyme variant]”, the self-aminoacylation with biotinyl-Phe-oxazolone turned out to be 9.69; in the data set on biotinyl-Trp-oxazolone, 2.76.
On the same counts, the results for “CCACACUUCAAACGAUCGGUC [Fam1B.1 aminoacylation ribozyme variant]” are 3.66 and 4.08.
The like results for “CCCCACUUCAUGCAAUCGGUC [Fam1B.1 aminoacylation ribozyme variant]” were, in that order, 2.57 and 2.78.
The like results for “CAGUUUGCUAAUAGUCGUAAG [Fam3.1 aminoacylation ribozyme variant]” were, in that order, 5.91 and 2.28.
On to “CCACACUUCAAGCAAUCAGUC [Fam1B.1 aminoacylation ribozyme variant]”, for which the self-aminoacylation is 21.5 in the data set on biotinyl-Phe-oxazolone and 6.45 in the data set with biotinyl-Trp-oxazolone.
On the same counts, the results for “CUACUUCAAACAAUCGGAAUG [Fam1A.1 aminoacylation ribozyme variant]” are 7.74 and 4.46.
As to “CCACUUCAAACAAUCGCUCUG [Fam1A.1 aminoacylation ribozyme variant]”, the self-aminoacylation with biotinyl-Phe-oxazolone worked out at 3.32; in the data set on biotinyl-Trp-oxazolone, 2.69.

Source of the values: the supplement of paper PMC9233669.
